Test system: LUX ARRHYTHMO (LUX/PCL1) (Arabidopsis)
Experiment: protein binding microarray
Conditions: not stated in the material

## PBM top-ranked 8-mer AGATACGC
  binding signal (PBM E-score (-0.5 to 0.5)): 0.487

From paper PMC3057456
